Assay results published in the supplement of paper PMC10065799, “High-throughput profiling of sequence recognition by tyrosine kinases and SH2 domains using bacterial peptide display” (eLife, 2023).

What was measured:
Grb2 SH2 = Grb2 SH2 (UniProt P62993); experiment: SH2 binding enrichment of the phosphorylated peptide, bacterial display (enrichment ratio); higher = better substrate or ligand; peptides without Tyr show the background
SHP2-C SH2 = experiment: as above
c-Src SH2 = experiment: as above
Fyn = Fyn (UniProt P06241); experiment: phosphorylation enrichment, bacterial display (enrichment ratio); higher = better substrate or ligand; peptides without Tyr show the background
Jak2 = Jak2 (UniProt O60674); experiment: as above
c-Abl (mouse) = experiment: as above
EPHB1 = EPHB1 (UniProt P54762); experiment: as above
c-Src = experiment: as above
AncSZ = experiment: as above
Fer (mouse) = experiment: as above
FGFR3 = FGFR3 (UniProt P22607); experiment: as above
EPHB2 = EPHB2 (UniProt P29323); experiment: as above
Fes = Fes (UniProt P07332); experiment: as above
FGFR1 = FGFR1 (UniProt P11362); experiment: as above
MERTK = MERTK (UniProt Q12866); experiment: as above
Hck = Hck (UniProt P08631); experiment: as above
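For SH2 binding enrichment of the phosphorylated peptide, bacterial display in this document: peptide library displayed on the E. coli surface as eCPX fusions, selected cells deep-sequenced, score is each peptide's frequency after selection divided by its frequency in the input.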
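For phosphorylation enrichment, bacterial display in this document: 11-residue human phosphosite peptides and single-mutation variants displayed on the E. coli surface, counted by deep sequencing, each peptide's frequency after selection divided by its frequency in the unselected input library; frequency after pTyr selection over input frequency; kinase dosed for 20-30% of maximal phosphorylation in three min.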

EPHB2, sequence (P29323 whole entry, looked up): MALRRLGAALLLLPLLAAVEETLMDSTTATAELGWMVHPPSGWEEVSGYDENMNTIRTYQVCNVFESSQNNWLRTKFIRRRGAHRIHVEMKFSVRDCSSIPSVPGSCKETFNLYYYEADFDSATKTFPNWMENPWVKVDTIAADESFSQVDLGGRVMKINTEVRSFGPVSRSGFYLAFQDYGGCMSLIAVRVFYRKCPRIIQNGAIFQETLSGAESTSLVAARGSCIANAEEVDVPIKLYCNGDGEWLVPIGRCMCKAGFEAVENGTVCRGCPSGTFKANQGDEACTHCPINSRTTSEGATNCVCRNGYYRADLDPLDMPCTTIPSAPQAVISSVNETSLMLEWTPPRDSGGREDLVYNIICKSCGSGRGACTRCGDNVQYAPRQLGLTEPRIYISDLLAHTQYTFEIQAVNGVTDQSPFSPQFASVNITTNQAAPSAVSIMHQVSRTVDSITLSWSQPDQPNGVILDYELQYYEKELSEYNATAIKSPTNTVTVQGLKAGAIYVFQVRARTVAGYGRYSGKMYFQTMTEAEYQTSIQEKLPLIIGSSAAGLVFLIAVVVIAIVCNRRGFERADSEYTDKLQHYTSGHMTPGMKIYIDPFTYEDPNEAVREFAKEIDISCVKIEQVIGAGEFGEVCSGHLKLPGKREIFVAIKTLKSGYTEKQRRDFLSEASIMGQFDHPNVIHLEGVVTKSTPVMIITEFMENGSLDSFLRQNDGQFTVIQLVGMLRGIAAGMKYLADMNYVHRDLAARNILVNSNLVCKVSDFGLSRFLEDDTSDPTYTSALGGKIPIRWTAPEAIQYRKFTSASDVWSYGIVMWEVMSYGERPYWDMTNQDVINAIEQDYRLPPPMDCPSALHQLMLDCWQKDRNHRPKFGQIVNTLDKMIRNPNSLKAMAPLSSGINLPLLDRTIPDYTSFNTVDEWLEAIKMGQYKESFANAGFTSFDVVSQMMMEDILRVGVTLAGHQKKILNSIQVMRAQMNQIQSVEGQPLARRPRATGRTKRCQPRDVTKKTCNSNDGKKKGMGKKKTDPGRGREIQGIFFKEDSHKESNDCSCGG
Jak2, sequence (O60674 whole entry, looked up): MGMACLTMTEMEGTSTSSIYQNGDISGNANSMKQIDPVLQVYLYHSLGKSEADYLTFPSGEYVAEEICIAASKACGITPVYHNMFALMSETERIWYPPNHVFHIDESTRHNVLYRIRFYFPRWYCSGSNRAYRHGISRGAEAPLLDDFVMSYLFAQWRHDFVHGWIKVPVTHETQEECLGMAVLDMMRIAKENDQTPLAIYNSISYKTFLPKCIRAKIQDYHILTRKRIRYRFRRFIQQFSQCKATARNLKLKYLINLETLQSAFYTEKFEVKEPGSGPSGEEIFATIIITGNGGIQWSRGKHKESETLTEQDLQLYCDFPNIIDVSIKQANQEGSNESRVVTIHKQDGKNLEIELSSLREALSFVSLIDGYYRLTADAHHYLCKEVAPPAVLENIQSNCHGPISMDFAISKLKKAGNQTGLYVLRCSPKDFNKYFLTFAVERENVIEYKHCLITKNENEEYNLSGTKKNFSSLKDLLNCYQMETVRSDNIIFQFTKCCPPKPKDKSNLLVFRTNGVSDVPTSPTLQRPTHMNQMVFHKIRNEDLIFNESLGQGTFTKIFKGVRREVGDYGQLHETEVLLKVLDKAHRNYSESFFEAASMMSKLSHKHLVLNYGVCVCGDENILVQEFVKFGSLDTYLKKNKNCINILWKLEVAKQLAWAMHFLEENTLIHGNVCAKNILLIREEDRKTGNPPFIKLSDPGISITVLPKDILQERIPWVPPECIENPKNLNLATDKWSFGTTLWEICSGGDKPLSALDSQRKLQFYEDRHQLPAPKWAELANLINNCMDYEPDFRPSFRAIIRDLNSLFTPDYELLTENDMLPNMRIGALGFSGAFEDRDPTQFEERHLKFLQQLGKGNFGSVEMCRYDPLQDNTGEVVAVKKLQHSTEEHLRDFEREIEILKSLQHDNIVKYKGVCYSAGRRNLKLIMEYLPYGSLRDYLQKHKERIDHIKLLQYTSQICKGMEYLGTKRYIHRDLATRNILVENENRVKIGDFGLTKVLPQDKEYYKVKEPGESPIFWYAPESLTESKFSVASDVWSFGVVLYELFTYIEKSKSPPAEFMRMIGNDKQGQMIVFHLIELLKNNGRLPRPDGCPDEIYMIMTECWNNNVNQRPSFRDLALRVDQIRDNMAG
FGFR3, sequence (P22607 whole entry, looked up): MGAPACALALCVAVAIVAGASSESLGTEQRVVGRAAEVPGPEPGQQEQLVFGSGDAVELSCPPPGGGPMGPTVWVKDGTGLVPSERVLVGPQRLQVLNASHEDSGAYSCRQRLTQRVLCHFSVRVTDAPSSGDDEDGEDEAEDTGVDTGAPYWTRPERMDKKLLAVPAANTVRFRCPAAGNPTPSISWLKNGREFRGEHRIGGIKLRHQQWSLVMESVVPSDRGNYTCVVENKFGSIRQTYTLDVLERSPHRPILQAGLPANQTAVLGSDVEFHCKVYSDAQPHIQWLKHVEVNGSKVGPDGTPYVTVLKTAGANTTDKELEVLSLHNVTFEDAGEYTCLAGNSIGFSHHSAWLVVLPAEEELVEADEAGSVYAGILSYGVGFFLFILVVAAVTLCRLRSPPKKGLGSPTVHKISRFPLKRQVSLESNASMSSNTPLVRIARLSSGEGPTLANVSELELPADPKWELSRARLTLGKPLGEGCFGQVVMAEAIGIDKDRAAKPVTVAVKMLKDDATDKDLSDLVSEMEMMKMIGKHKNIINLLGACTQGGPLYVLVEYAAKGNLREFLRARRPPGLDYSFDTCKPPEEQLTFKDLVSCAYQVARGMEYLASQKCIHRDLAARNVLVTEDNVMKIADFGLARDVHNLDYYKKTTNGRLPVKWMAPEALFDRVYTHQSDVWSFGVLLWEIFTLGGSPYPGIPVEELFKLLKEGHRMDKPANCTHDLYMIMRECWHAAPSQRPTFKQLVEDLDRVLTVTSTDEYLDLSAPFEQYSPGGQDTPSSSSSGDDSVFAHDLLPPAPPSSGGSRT
FGFR1, sequence (P11362 whole entry, looked up): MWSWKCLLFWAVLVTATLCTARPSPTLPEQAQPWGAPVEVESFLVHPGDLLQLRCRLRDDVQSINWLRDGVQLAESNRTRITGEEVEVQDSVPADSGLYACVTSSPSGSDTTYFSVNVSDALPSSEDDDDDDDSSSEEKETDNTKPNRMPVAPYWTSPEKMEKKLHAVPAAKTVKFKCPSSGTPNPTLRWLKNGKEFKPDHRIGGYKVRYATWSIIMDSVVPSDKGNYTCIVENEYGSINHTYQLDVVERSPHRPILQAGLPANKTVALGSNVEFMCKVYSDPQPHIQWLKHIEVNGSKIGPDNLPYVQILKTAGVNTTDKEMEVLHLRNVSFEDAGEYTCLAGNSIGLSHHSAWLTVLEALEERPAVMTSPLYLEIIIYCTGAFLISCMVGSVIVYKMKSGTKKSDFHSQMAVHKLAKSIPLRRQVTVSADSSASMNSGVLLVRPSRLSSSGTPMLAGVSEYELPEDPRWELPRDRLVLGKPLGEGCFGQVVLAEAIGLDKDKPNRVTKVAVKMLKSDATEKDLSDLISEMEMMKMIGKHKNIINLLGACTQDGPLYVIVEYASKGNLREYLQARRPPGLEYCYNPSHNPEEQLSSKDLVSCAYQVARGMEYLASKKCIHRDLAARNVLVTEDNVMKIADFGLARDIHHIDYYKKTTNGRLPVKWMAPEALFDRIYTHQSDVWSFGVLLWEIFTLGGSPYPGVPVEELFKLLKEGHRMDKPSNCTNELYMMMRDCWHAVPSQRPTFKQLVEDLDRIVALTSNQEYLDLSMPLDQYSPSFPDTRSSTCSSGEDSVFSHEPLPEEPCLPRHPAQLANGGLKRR
Fyn, sequence (P06241 whole entry, looked up): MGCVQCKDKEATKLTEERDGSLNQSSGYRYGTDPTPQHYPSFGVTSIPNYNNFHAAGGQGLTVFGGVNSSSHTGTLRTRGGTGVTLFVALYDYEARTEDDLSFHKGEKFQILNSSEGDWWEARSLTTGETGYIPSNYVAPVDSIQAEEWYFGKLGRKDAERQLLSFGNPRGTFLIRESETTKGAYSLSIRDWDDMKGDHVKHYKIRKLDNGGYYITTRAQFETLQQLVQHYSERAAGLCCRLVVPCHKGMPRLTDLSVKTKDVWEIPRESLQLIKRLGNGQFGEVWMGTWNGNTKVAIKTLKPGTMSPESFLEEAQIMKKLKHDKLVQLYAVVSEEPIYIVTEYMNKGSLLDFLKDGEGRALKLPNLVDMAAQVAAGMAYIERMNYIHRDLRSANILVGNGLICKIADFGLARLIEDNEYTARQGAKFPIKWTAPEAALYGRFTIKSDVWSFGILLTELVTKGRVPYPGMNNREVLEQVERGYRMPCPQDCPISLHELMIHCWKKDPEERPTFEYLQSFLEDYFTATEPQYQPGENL
Hck, sequence (P08631 whole entry, looked up, the tested form may be a part): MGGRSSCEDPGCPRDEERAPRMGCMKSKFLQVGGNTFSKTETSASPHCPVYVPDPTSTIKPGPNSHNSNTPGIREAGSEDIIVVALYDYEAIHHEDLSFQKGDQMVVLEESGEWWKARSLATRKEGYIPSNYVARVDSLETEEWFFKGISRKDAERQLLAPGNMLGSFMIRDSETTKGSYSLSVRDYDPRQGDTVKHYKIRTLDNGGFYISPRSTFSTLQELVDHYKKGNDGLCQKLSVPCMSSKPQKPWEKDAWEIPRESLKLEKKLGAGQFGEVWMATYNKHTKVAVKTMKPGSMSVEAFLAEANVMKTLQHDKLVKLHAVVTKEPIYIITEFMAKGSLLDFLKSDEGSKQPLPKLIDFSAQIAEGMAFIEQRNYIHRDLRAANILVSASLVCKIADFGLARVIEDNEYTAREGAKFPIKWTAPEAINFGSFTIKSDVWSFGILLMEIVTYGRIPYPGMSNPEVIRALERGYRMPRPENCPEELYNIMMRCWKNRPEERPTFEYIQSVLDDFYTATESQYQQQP

| Sequence | SH2 binding enrichment (Grb2 SH2) | SH2 binding enrichment (SHP2-C SH2) | SH2 binding enrichment (c-Src SH2) | phosphorylation enrichment (Fyn) | phosphorylation enrichment (Jak2) | phosphorylation enrichment (c-Abl (mouse)) | phosphorylation enrichment (EPHB1) | phosphorylation enrichment (c-Src) | phosphorylation enrichment (AncSZ) | phosphorylation enrichment (Fer (mouse)) | phosphorylation enrichment (FGFR3) | phosphorylation enrichment (EPHB2) | phosphorylation enrichment (Fes) | phosphorylation enrichment (FGFR1) | phosphorylation enrichment (MERTK) | phosphorylation enrichment (Hck) |
| --- | --- | --- | --- | --- | --- | --- | --- | --- | --- | --- | --- | --- | --- | --- | --- | --- |
| CTTIRYNFMCN [TP53_Y234_H233R_YF] | 1.87 | 1.82 | 1.65 | 0.521 | 0.833 | 0.618 | 0.552 | 0.372 | 0.948 | 0.501 | 0.684 | 0.613 | 0.983 | 0.434 | 0.407 | 0.435 |
| CTTSHYNYMCN [TP53_Y234_I232S] | 1.01 | 2.04 | 11 | 0.49 | 0.537 | 0.515 | 0.741 | 0.441 | 0.896 | 0.55 | 0.649 | 0.534 | 0.755 | 0.569 | 0.549 | 0.563 |
| DAPVVYLGSFG [PRAG1_Y132_R137G] | 0.646 | 6.03 | 0.479 | 0.514 | 0.776 | 0.671 | 0.389 | 0.507 | 0.863 | 0.475 | 0.623 | 0.579 | 0.851 | 0.491 | 0.437 | 0.631 |
| DASAVYLHDFQ [PLCG2_Y242] | 0.933 | 0.634 | 0.542 | 0.533 | 0.792 | 0.573 | 0.528 | 0.447 | 0.746 | 0.474 | 0.543 | 0.561 | 1.31 | 0.477 | 0.477 | 0.622 |
| DDLEVYLKHPL [SACS_Y3477_L3481P] | 0.604 | 0.592 | 0.341 | 1.26 | 1.32 | 0.842 | 0.871 | 1.85 | 1.53 | 0.558 | 0.735 | 0.625 | 1.31 | 0.643 | 0.562 | 1.73 |
| DDSNPYINVKL [MTHFD1_Y52_L51P] | 1.32 | 0.811 | 0.701 | 0.645 | 1.16 | 0.846 | 0.551 | 0.59 | 1.45 | 1.2 | 0.884 | 0.614 | 1.66 | 0.631 | 0.526 | 0.606 |
| DEEYEYMNRRR [ERBB3_Y1199] | 0.837 | 0.701 | 0.619 | 0.483 | 0.93 | 0.65 | 0.465 | 0.454 | 1.57 | 0.466 | 0.629 | 0.503 | 0.986 | 0.501 | 0.37 | 0.546 |
| DEFLEHRRIVG [FAM221A_Y20_Y20H_YF] | 0.813 | 0.574 | 0.531 | 0.425 | 0.716 | 0.58 | 0.447 | 0.409 | 0.747 | 0.387 | 0.502 | 0.494 | 0.902 | 0.45 | 0.48 | 0.47 |
| DERQPYAHMNG [IGF1R_Y1346] | 0.729 | 0.767 | 1.85 | 0.438 | 0.533 | 0.455 | 0.359 | 0.376 | 0.588 | 0.456 | 0.459 | 0.362 | 0.599 | 0.45 | 0.343 | 0.427 |
| DESEDYRDTVV [CNNM3_Y456] | 0.901 | 0.587 | 0.439 | 0.623 | 1.4 | 0.897 | 0.975 | 0.662 | 1.46 | 0.78 | 1.13 | 0.931 | 1.59 | 0.677 | 0.633 | 0.765 |
| DEWFLYKMRDI [CPS1_Y879_K875E] | 0.653 | 0.829 | 0.417 | 0.486 | 1.63 | 0.935 | 0.751 | 0.816 | 1.25 | 0.586 | 0.878 | 0.585 | 1.56 | 0.503 | 0.4 | 0.615 |
| DEYLEYRRIVG [FAM221A_Y20] | 1.03 | 0.762 | 0.547 | 1.03 | 0.91 | 0.859 | 1.12 | 1.07 | 1.14 | 0.51 | 0.968 | 0.615 | 0.881 | 1.07 | 0.38 | 1.06 |
| DFPGIYSGYDD [POLR1C_Y33_N32I] | 0.835 | 1 | 1.44 | 6.48 | 0.946 | 0.796 | 0.627 | 5.19 | 1.09 | 0.687 | 0.696 | 0.652 | 1.05 | 0.485 | 0.565 | 3.4 |
| DFSLKYATDIP [APC_Y1183_YF] | 0.781 | 0.737 | 0.457 | 0.524 | 0.897 | 0.572 | 0.606 | 0.378 | 0.914 | 0.536 | 0.668 | 0.619 | 1.08 | 0.592 | 0.374 | 0.47 |
| DGMADYSDPSY [CDC5L_Y459] | 0.833 | 0.616 | 0.459 | 0.571 | 1.47 | 0.859 | 1.33 | 0.538 | 1.43 | 0.486 | 0.686 | 1.71 | 1.3 | 0.611 | 0.496 | 0.487 |
| DGNIDYAEFAK [MCFD2_Y138_Y135N] | 0.801 | 1.04 | 0.443 | 0.804 | 0.987 | 0.757 | 0.498 | 0.646 | 1.24 | 0.445 | 0.62 | 0.545 | 1.2 | 0.595 | 0.51 | 0.673 |
| DGTGHYLCNAC [GATA5_Y208] | 0.83 | 0.658 | 0.45 | 0.396 | 0.681 | 0.595 | 0.61 | 0.421 | 0.625 | 0.458 | 0.416 | 0.445 | 0.763 | 0.456 | 0.398 | 0.45 |

| Sequence | SH2 binding enrichment (Grb2 SH2) | SH2 binding enrichment (SHP2-C SH2) | SH2 binding enrichment (c-Src SH2) | phosphorylation enrichment (Fyn) | phosphorylation enrichment (Jak2) | phosphorylation enrichment (c-Abl (mouse)) | phosphorylation enrichment (EPHB1) | phosphorylation enrichment (c-Src) | phosphorylation enrichment (AncSZ) | phosphorylation enrichment (Fer (mouse)) | phosphorylation enrichment (FGFR3) | phosphorylation enrichment (EPHB2) | phosphorylation enrichment (Fes) | phosphorylation enrichment (FGFR1) | phosphorylation enrichment (MERTK) | phosphorylation enrichment (Hck) |
| --- | --- | --- | --- | --- | --- | --- | --- | --- | --- | --- | --- | --- | --- | --- | --- | --- |
| DGTGHYLGNAC [GATA5_Y208_C210G] | 0.966 | 0.561 | 0.492 | 0.347 | 0.548 | 0.554 | 0.471 | 0.311 | 0.624 | 0.4 | 0.474 | 0.456 | 0.727 | 0.421 | 0.357 | 0.399 |
| DKVFTYIFIME [SCN4A_Y1074] | 0.813 | 0.58 | 0.469 | 0.41 | 1.35 | 0.968 | 0.645 | 0.533 | 1.32 | 0.658 | 1.14 | 0.695 | 1.53 | 0.54 | 0.41 | 0.575 |
| DLAGRYFALKS [CKB_Y173_YF] | 1.38 | 0.688 | 0.585 | 0.433 | 1.57 | 1.49 | 0.487 | 0.545 | 0.633 | 0.37 | 0.613 | 0.574 | 0.848 | 0.412 | 0.558 | 0.453 |
| DLDTDYGSGFP [RNASEH2A_Y206_YF] | 0.589 | 0.592 | 0.404 | 0.45 | 0.979 | 0.673 | 0.585 | 0.511 | 1.22 | 0.465 | 0.588 | 0.443 | 0.978 | 0.447 | 0.38 | 0.49 |
| DLSEVYKPCRK [CCDC93_Y176_R179C] | 0.963 | 0.853 | 0.528 | 0.451 | 0.829 | 0.729 | 0.483 | 0.405 | 0.847 | 0.453 | 0.668 | 0.532 | 0.935 | 0.53 | 0.419 | 0.506 |
| DMDATYRPMFS [JUP_Y701_YF] | 0.762 | 0.886 | 0.472 | 0.592 | 0.752 | 0.763 | 0.52 | 0.624 | 0.831 | 0.465 | 0.649 | 0.448 | 0.99 | 0.498 | 0.461 | 0.762 |
| DNEALYDTCFR [TUBB2B_Y208_I210T] | 0.725 | 0.456 | 0.56 | 6.81 | 1.23 | 2.25 | 2.85 | 5.2 | 2.34 | 8.38 | 0.888 | 2.71 | 1.49 | 0.61 | 6.63 | 6.09 |
| DNKALYDICFR [TUBB3_Y208_E205K] | 0.739 | 0.641 | 0.541 | 2.6 | 1.18 | 1.41 | 2.95 | 3.21 | 1.38 | 4.5 | 0.853 | 2.23 | 1.26 | 0.612 | 7.18 | 4.34 |
| DNLSNYVFQGQ [GRIN2A_Y978_N976S] | 0.904 | 0.818 | 0.601 | 0.475 | 0.783 | 0.546 | 2.09 | 0.454 | 0.71 | 0.416 | 0.611 | 1.22 | 0.796 | 0.571 | 0.618 | 0.41 |
| DPADRYLTEQY [CDKL5_Y286_C291Y] | 1 | 0.944 | 0.429 | 0.478 | 0.965 | 0.806 | 0.398 | 0.477 | 0.899 | 0.39 | 0.597 | 0.487 | 1.15 | 0.454 | 0.402 | 0.497 |
| DQLVKHGVNPG [TMPO_Y127_Y127H] | 0.669 | 0.702 | 0.457 | 0.308 | 0.479 | 0.421 | 0.347 | 0.346 | 0.47 | 0.284 | 0.377 | 0.304 | 0.467 | 0.329 | 0.344 | 0.386 |
| DQVEQYNKELE [LMNA_Y259_K260N] | 0.882 | 0.81 | 0.441 | 0.558 | 1.17 | 0.692 | 0.683 | 0.459 | 1.09 | 0.494 | 0.762 | 0.672 | 1.23 | 0.552 | 0.418 | 0.581 |
| DRFDNYIEKVR [DES_Y122_A120D] | 0.836 | 0.596 | 0.507 | 0.432 | 0.755 | 0.583 | 0.348 | 0.421 | 0.709 | 0.408 | 0.604 | 0.433 | 0.774 | 0.539 | 0.406 | 0.413 |
| DRIVNYSRASV [ATP7A_Y1459_I1464V] | 0.766 | 0.706 | 0.533 | 0.423 | 0.732 | 0.563 | 0.482 | 0.468 | 0.702 | 0.449 | 0.535 | 0.438 | 0.79 | 0.467 | 0.574 | 0.45 |
| DRKRQYELLKL [KIF4B_Y684] | 1.17 | 1.04 | 1.49 | 0.392 | 0.876 | 0.545 | 0.44 | 0.395 | 0.682 | 0.421 | 0.576 | 0.462 | 0.758 | 0.331 | 0.4 | 0.488 |
| DRPASYLDKVR [KRT17_Y98_L95P] | 0.828 | 0.664 | 0.502 | 0.398 | 0.556 | 0.624 | 0.446 | 0.474 | 0.674 | 0.405 | 0.456 | 0.396 | 0.636 | 0.465 | 0.51 | 0.432 |
